According to patent publication US20200131227A1, “POLYPEPTIDE WITH TUMOUR BINDING ACTIVITY” (RUPRECHT-KARLS-UNIVERSITÄT HEIDELBERG, priority 2017, published 2020):
Where a SMILES comes first, the peptide text is derived from it. Bridges are numbered along the chain shown (N, C = ends). The star is where a group is joined. DOTA = O=C(O)CN1CCN(CC(=O)O)CCN(CC(=O)*)CCN(CC(=O)O)CC1

Tests used:
[1] = Biodistribution, HNO97 xenografts; details: Balb/c nude, mouse, iv, 1 MBq, total radioactivity; for tissue uptake / tissue to tissue ratio at 0.5 h / tissue to tissue ratio at 1 h / tissue to tissue ratio at 2 h / tissue to tissue ratio at 4 h / tissue to tissue ratio at 6 h: in vivo; for tissue to tissue ratio at 0.5 h / tissue to tissue ratio at 1 h / tissue to tissue ratio at 2 h / tissue to tissue ratio at 4 h / tissue to tissue ratio at 6 h: HNO97 xenografts; for tissue to tissue ratio at 0.5 h: 30 min
Experimental: All experiments were conducted in compliance with the German animal protection laws. Eight week old Balb c/c nude mice (Charles River Laboratories) were inoculated subcutaneously at the right shoulder with 5×10^6 HNO97 cells in BD MatriGel™ (BD Bioscience). Xenografts were grown to a tumor diameter of 10-15 mm. For small animal-PET imaging mice were anesthetized using isoflurane inhalation and injected via tail-vein with 50 MBq (2 nmol) of the ^68Ga-labeled DOTA-SFITGv6 peptide (see above) solution in 100 μL PBS. Images were recorded on an Inveon small-animal PET scanner (Siemens) using a 60 min emission scan in list mode and a 10 min transmission scan. Images were taken in 3-dimensional (3D) mode and reconstructed iteratively with a fully 3D algorithm from a 256×256 matrix for viewing transaxial, coronal, and sagittal slices of 0.9 mm thickness. Pixel size was 0.38×0.38×0.79 mm3 and transaxial resolution obtained was 0.9 mm. For blocking experiments 100 μL of a 1 mM aqueous solution of SFITGv6 was pre-administered intraperitoneally 30 min before injection of the radiolabeled peptide. Biodistribution studies were performed after administration of 100 μL of a 20 nM ^177Lu-DOTA-SFITGv6 solution (1 MBq) as an intravenous bolus injection into the tail vein of the mice. After different time points (30 min to 6 hours) three animals, respectively, were sacrificed. Peripheral blood, heart, lung, spleen, liver, kidneys, muscle, brain, intestine, and injection site (tail, after intravenous injection only) were collected and weighted. Tissue-associated radioactivity was measured in a gamma counter (Berthold LB951G) and expressed as percentage of the injected dose per gram tissue (% ID/g).
All animal experiments were conducted in compliance with the German animal protection laws. For in vivo small animal PET imaging and organ distribution studies eight-week old Balb/c nude mice (Charles River Laboratories) were inoculated subcutaneously at the right shoulder with a total of 5×10^6 tumor cells in MatriGel (BD Bioscience). Xenografts were grown until a tumor diameter of 10-15 mm was reached.
3-dimensional (3D) PET images of whole mice were captured by the Siemens Inveon PET scanner as described in Example 1. To assess the biodistribution 100 μL of a 20 nM solution (1 MBq) of ^177Lu-DOTA-SFLAP3 and ^177Lu-DOTA-SFITGv6 were administered as an intravenous bolus injection into the tail vein of mice. For each time point (30 min to 6 hours) we sacrificed a total of three animals, and subsequently collected peripheral blood, heart, lung, spleen, liver, kidneys, muscle, brain, and intestine. Tissues were weighed and respective radioactivity was measured by a gamma counter (LB951G, Berthold Technologies). Values were expressed as percentage of the injected dose radioactivity (MBq) per gram tissue (% ID/g).

carcinoma cell lines = assay: In vitro binding of radiolabeled peptides to several carcinoma cell lines; assay type: cell-based, human; details: HNO97 and UM-UC-5 cells, ^125I-labeled, 60 min, versus SFPF-10
Summary of the method: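 Cells seeded 48 h were incubated with ^125I-labeled peptide in serum-free medium for 10 or 60 min, alone or with unlabeled peptide (10^−4 to 10^−11 M); HNO97 kinetics, efflux and internalization (37° C and 4° C, acid strip) used ^177Lu-DOTA-SFITGv6. Gamma counting gave % applied dose per 10^6 cells.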

[2] = uptake in the kidneys, hardly any clearance

CSCC[C@@H]1NC(=O)[C@H](CC(C)C)NC(=O)[C@H](CC(=O)O)NC(=O)CNC(=O)[C@H](CCCNC(=N)N)NC(=O)[C@H](Cc2ccccc2)NC(=O)[C@H]([C@@H](C)O)NC(=O)[C@@H](NC(=O)[C@H](CCCNC(=N)N)NC(=O)CN)CSSC[C@@H](C(=O)N[C@@H](Cc2ccc(O)cc2)C(=O)N2CCC[C@H]2C(=O)N[C@@H](CC(=O)O)C(=O)O)NC(=O)[C@H](CC(C)C)NC(=O)[C@H](CCC(N)=O)NC1=O [SFITGv6, NH2-G-R-C1-T-F-R-G-D-L-M-Q-L-C1-Y-P-D-COOH] (H-GRCTFRGDLMQLCYPD-OH; disulfide 3-13)
tissue uptake ([1]; activity in the blood): < 1 %ID/g | tissue uptake [1, 2]: ~42 %ID/g | tissue uptake at 0.5 h [1]: > 6 %ID/g | tissue uptake at 6 h [1]: 2.4 %ID/g | binding after substitution of lysine (K) to leucine (L) in FRGDKMQL (carcinoma cell lines): substantially increased the binding

CSCC[C@@H]1NC(=O)[C@H](CC(C)C)NC(=O)[C@H](CC(=O)O)NC(=O)CNC(=O)[C@H](CCCNC(=N)N)NC(=O)[C@H](Cc2ccccc2)NC(=O)[C@H]([C@@H](C)O)NC(=O)[C@@H](NC(=O)[C@H](CCCNC(=N)N)NC(=O)CNC(=O)CN2CCN(CC(=O)O)CCN(CC(=O)O)CCN(CC(=O)O)CC2)CSSC[C@@H](C(=O)N[C@@H](Cc2ccc(O)cc2)C(=O)N2CCC[C@H]2C(=O)N[C@@H](CC(=O)O)C(=O)O)NC(=O)[C@H](CC(C)C)NC(=O)[C@H](CCC(N)=O)NC1=O [^177Lu-DOTA-SFITGv6, metal not drawn] ({DOTA}-GRCTFRGDLMQLCYPD-OH; disulfide 3-13)
tissue to tissue ratio at 0.5 h ([1]; Tumor-to-Blood ratio): 6.89 ± 1 | tissue to tissue ratio at 1 h ([1]; Tumor-to-Blood ratio): 12.9 ± 0.83 | tissue to tissue ratio at 2 h ([1]; Tumor-to-Blood ratio): 59.5 ± 1.04 | tissue to tissue ratio at 4 h ([1]; Tumor-to-Blood ratio): 98.86 ± 0.35 | tissue to tissue ratio at 6 h ([1]; Tumor-to-Blood ratio): 99.15 ± 0.51 | tissue to tissue ratio at 0.5 h ([1]; Tumor-to-Brain ratio): 190.9 ± 1 | tissue to tissue ratio at 1 h ([1]; Tumor-to-Brain ratio): 198.6 ± 0.82 | tissue to tissue ratio at 2 h ([1]; Tumor-to-Brain ratio): 250.3 ± 1.04 | tissue to tissue ratio at 4 h ([1]; Tumor-to-Brain ratio): 372.6 ± 0.35 | tissue to tissue ratio at 6 h ([1]; Tumor-to-Brain ratio): 424.9 ± 0.51 | tissue to tissue ratio at 0.5 h ([1]; Tumor-to-Heart ratio): 15.1 ± 1 | tissue to tissue ratio at 1 h ([1]; Tumor-to-Heart ratio): 21.9 ± 0.82 | tissue to tissue ratio at 2 h ([1]; Tumor-to-Heart ratio): 48.8 ± 1.04 | tissue to tissue ratio at 4 h ([1]; Tumor-to-Heart ratio): 67.5 ± 0.36 | tissue to tissue ratio at 6 h ([1]; Tumor-to-Heart ratio): 78.99 ± 0.51 | tissue to tissue ratio at 0.5 h ([1]; Tumor-to-Intestine ratio): 4.59 ± 1 | tissue to tissue ratio at 1 h ([1]; Tumor-to-Intestine ratio): 3.42 ± 0.83 | tissue to tissue ratio at 2 h ([1]; Tumor-to-Intestine ratio): 9.44 ± 1.05 | tissue to tissue ratio at 4 h ([1]; Tumor-to-Intestine ratio): 10.7 ± 0.36 | tissue to tissue ratio at 6 h ([1]; Tumor-to-Intestine ratio): 7.82 ± 0.51 | tissue to tissue ratio at 0.5 h ([1]; Tumor-to-Kidney ratio): 0.15 ± 3.73 | tissue to tissue ratio at 1 h ([1]; Tumor-to-Kidney ratio): 0.12 ± 2.21 | tissue to tissue ratio at 2 h ([1]; Tumor-to-Kidney ratio): 0.1 ± 3.11 | tissue to tissue ratio at 4 h ([1]; Tumor-to-Kidney ratio): 0.07 ± 2.69 | tissue to tissue ratio at 6 h ([1]; Tumor-to-Kidney ratio): 0.06 ± 2.58 | tissue to tissue ratio at 0.5 h ([1]; Tumor-to-Liver ratio): 20.8 ± 1 | tissue to tissue ratio at 1 h ([1]; Tumor-to-Liver ratio): 21.5 ± 0.82 | tissue to tissue ratio at 2 h ([1]; Tumor-to-Liver ratio): 25.8 ± 1.04 | tissue to tissue ratio at 4 h ([1]; Tumor-to-Liver ratio): 32.2 ± 0.36 | tissue to tissue ratio at 6 h ([1]; Tumor-to-Liver ratio): 17.6 ± 0.51 | tissue to tissue ratio at 0.5 h ([1]; Tumor-to-Lung ratio): 2.29 ± 1.14 | tissue to tissue ratio at 1 h ([1]; Tumor-to-Lung ratio): 3.81 ± 0.82 | tissue to tissue ratio at 2 h ([1]; Tumor-to-Lung ratio): 9.13 ± 1.05 | tissue to tissue ratio at 4 h ([1]; Tumor-to-Lung ratio): 10.3 ± 0.36 | tissue to tissue ratio at 6 h ([1]; Tumor-to-Lung ratio): 9.73 ± 0.51 | tissue to tissue ratio at 0.5 h ([1]; Tumor-to-Muscle ratio): 13.9 ± 1 | tissue to tissue ratio at 1 h ([1]; Tumor-to-Muscle ratio): 16.1 ± 0.83 | tissue to tissue ratio at 2 h ([1]; Tumor-to-Muscle ratio): 22.7 ± 1.04 | tissue to tissue ratio at 4 h ([1]; Tumor-to-Muscle ratio): 32.3 ± 0.36 | tissue to tissue ratio at 6 h ([1]; Tumor-to-Muscle ratio): 21.9 ± 0.51 | tissue to tissue ratio at 0.5 h ([1]; Tumor-to-Spleen ratio): 21.1 ± 1 | tissue to tissue ratio at 1 h ([1]; Tumor-to-Spleen ratio): 27.4 ± 0.82 | tissue to tissue ratio at 2 h ([1]; Tumor-to-Spleen ratio): 38.4 ± 1.04 | tissue to tissue ratio at 4 h ([1]; Tumor-to-Spleen ratio): 51.78 ± 0.36 | tissue to tissue ratio at 6 h ([1]; Tumor-to-Spleen ratio): 35.4 ± 0.51 | tissue uptake [1, 2]: ~42 %ID/g | tissue uptake at 0.5 h [1]: 6.22 ± 1 %ID/g | tissue uptake at 6 h [1]: 2.43 ± 0.51 %ID/g
